Our source for the EC50 and Kd values is patent US20170051072A1 (UNITED STATES OF AMERICA AS REPRESENTED BY THE SECRETARY …, published 2017).

Test [1] concerns the target T1, human mesothelin with His-tag (R&D Systems) (human, UniProt Q13421 296-580).
T1 construct: also called huMesothelin; MSLN; not shown: His-tag
Put plainly: ELISA, IgG on captured His-huMesothelin (R&D). A general note: In an ELISA, binding on a coated surface is turned into a signal by an enzyme label.

Test [2] has as its target T2, human mesothelin with His-tag (in house) (human, UniProt Q13421 296-598, limits assumed).
T2 construct: also called huMesothelin; MSLN; not shown: His-tag
Put plainly: ELISA, IgG on captured His-huMesothelin (in house).

For another test, the target named is T3, human mesothelin (SPR) (human, UniProt Q13421 296-598, limits assumed).
T3 construct: also called human MSLN
Put plainly: SPR, IgG captured on Protein A, 50 nM human mesothelin, 25 C, 1:1 fit. On the technique in general: SPR reads the build-up and loss of mass on a sensor chip optically.

“And” between values parts separate entries of the source, which are not always exact repeats. Identical values can stand only once.

T2 sequence (Q13421 other isoform, or with tags, fused parts or gaps limits assumed): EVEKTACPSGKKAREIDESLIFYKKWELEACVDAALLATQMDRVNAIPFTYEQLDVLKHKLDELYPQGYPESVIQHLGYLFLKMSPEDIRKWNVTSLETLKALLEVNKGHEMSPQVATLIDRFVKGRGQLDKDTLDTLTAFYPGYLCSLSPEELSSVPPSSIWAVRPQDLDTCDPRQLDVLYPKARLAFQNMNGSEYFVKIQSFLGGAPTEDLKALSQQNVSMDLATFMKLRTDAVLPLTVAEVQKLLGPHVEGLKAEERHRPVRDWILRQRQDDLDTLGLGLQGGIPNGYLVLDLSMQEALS
T1 sequence (Q13421 other isoform, or with tags, fused parts or gaps limits assumed): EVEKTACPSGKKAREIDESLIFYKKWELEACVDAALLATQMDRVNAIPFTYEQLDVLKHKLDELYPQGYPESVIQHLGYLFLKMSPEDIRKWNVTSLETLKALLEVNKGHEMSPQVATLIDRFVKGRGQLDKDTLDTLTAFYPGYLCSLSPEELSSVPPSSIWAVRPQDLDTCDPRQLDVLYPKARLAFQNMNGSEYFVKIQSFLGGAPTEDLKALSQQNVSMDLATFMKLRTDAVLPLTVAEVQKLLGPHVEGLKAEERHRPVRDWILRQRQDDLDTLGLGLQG

B1: IgG VH 000/15437 + VL 001/15457 (antibody, V domains shown)
VH: not shown
VL: DIQMTQSPSSLSASVGDRVTITCSASSSVSYMHWYQQKSGKAPKLLIYDTSKLASGVPSRFSGSGSGTDFTLTISSLQPEDFATYYCQQWSKHPLTFGQGTKLEIK
For orientation: EC50 means the concentration needed to bring the measured effect to its halfway point. High values mean lower potency in that assay, low ones higher potency in that assay. As to B1, the concentration for a half-maximal effect (EC50) in test [1] came out at 0.0182 µg/mL; in test [2], 0.0178 µg/mL.

B2: IgG VH 001/15438 + VL 000/15456 (antibody, V domains shown)
VH: QVQLVQSGAEVKKPGASVKVSCKASGYSFTGYTMNWVRQAPGQGLEWMGLITPYNGASSYNQKFRGKATMTVDTSTSTVYMELSSLRSEDTAVYYCARGGYDGRGFDYWGQGTLVTVSS
VL: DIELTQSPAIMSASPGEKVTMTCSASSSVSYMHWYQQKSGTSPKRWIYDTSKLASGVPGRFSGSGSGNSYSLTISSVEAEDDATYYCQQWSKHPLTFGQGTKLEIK
Turning to B2, the EC50 in test [1] was found to be 0.0228 µg/mL; in test [2] it was 0.032 µg/mL.

B3: IgG VH 001/15438 + VL 001/15457 (antibody, V domains shown)
VH: B2 VH
VL: B1 VL
notes: also called VL001/VH001; VL01/VH01
The Kd is the concentration at which binding is half-saturated. Low readings indicate tighter binding, high ones weaker binding. B3: the values for the concentration for a half-maximal effect (EC50) in test [1] and in test [2] were 0.0155 µg/mL and 0.0203 µg/mL, respectively. Further, the dissociation constant Kd with human mesothelin (SPR) is 0.263 nM and 0.26 nM.
